The source of these data is patent publication US20180134786A1 (TOHOKU UNIVERSITY, published 2018).

For experiment [1], the target named is T1, human podocalyxin expressed on cancer cells (human, UniProt O00592 23-558).
T1 construct: Podocalyxin on cancer cells; also called hPODXL; PODXL
T1 sequence: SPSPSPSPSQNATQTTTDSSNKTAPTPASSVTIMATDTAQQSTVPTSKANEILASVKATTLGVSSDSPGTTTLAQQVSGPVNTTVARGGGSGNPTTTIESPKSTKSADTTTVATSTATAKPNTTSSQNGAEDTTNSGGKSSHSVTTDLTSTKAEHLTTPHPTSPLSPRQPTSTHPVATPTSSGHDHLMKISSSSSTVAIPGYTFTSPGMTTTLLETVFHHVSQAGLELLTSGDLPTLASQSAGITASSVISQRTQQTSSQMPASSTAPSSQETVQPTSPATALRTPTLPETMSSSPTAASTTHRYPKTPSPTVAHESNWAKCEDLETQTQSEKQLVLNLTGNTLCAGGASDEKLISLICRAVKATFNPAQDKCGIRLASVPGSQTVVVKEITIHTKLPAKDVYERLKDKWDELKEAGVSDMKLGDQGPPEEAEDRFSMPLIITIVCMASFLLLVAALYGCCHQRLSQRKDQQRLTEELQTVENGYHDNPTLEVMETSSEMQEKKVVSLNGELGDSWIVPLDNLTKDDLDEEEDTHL
Nature of the experiment: immunohistochemistry on breast cancer tissue array, 5 µg/mL. As to the method:
Various paraffin sections were deparaffined in xylene and ethanol solutions. The resulting sections were subjected to antigen activation in an autoclave by using a citrate buffer having pH 6.0 (product of Dako). Endogenous peroxidase was inactivated with 3% H₂O₂. After blocking with SuperBlock (product of Thermo Fisher) at room temperature for 10 minutes, the primary antibody was reacted at a concentration of from 5 to 10 μg/mL at room temperature for one hour. After amplification using a LSAB kit (product of Dako), LSAB2 (product of Dako), or Envision+ (product of Dako), color was developed using DAB (product of Dako).
Podocalyxin is known to be expressed highly in breast cancer. PcMab-6 and an anti-podocalyxin antibody (polyclonal antibody: product of R&D) were therefore reacted with a breast cancer tissue array (product of US Biomax) at a concentration of 5 μg/mL. […] Similarly, a difference in reactivity with breast cancer between PcMab-6 and PcMab-47 was investigated. […] It has therefore been confirmed that also in Immunohistochemistry, PcMab-6 is CasMab.

Experiment [2] addresses T1, human podocalyxin expressed on cancer …. Put plainly: flow cytometry on LN229/hPODXL, CHO culture supernatant. On the procedure: A CRISPR/Cas plasmid of a glycosyltransferase (FUT-8) that transfers a core fucose was introduced into CHO-s cells (product of Thermo Scientific) and CHO-s-fut8-knock out cells were established. pCAG-hIgG1hG2b/PcMab-6HVH (G418)/pCAG-hIgCK/PcMab-6LVL (zeocin) (each 2.5 μg) or pCAG-hIgG1hG2b/PcMab-47HVH (G418)/pCAG-hIgCK/PcMab-47LVL (zeocin) (each 2.5 μg) were mixed and transfected into 1×10⁵ CHO-s/fut8-knock out cells (corresponding to 1 well of a 6-well plate) by the method of Lipofectamin LTX. After 24 hours, selection of transfected cells was started on a medium containing 500 μg/mL of Zeocin and 1 mg/mL of G418. The reactivity of the culture supernatant of the selected cells with the LN229 cells having therein forcibly expressed podocalyxin (LN229/hPODXL) was confirmed by flow cytometry.
Background: In flow cytometry, cells or beads pass a laser one at a time.

B1: PcMab-47 (antibody, mouse IgG1, kappa)
heavy: QVQLQQSAAELARPGASVKMSCKASGYTFTNYTIHWVKQRPGQGLEWIGFINPTSGYSDFNQKFKAKTTLTADKSSSTAHMQLTSLTSEDSAVYYCARLFAPAYWGQGTLVTVSAAKTTPPSVYPLAPGSAAQTNSMVTLGCLVKGYFPEPVTVTWNSGSLSSGVHTFPAVLQSDLYTLSSSVTVPSSTWPSETVTCNVAHPASSTKVDKKIVPRDCGCKPCICTVPEVSSVFIFPPKPKDVLTITLTPKVTCVVVDISKDDPEVQFSWFVDDVEVHTAQTQPREEQFNSTFRSVSELPIMHQDWLNGKEFKCRVNSAAFPAPIEKTISKTKGRPKAPQVYTIPPPKEQMAKDKVSLTCMITDFFPEDITVEWQWNGQPAENYKNTQPIMDTDGSYFVYSKLNVQKSNWEAGNTFTCSVLHEGLHNHHTEKSLSHSPGK
light: QIVLTQSPAIMSASLGERVTMYCTASSSVSSSYLHWYQQKPGSSPKLWIYGTSNLASGVPARFSGSGSGTSYSLTISSMEAEDAATYYCHQYHRPPLTFGAGTKLELKRADAAPTVSIFPPSSEQLTSGGASVVCFLNNFYPKDINVKWKIDGSERQNGVLNSWTDQDSKDSTYSMSSTLTLTKDEYERHNSYTCEATHKTSTSPIVKSFNRNEC
notes: Mouse monoclonal antibody; also called cancer-nonspecific anti-podocalyxin antibody
For the molecule B1, in experiment [1], the binding result is on record as “binds”.

B2: mouse-human chimeric PcMab-47 antibody (chPcMab-47) (antibody)
heavy: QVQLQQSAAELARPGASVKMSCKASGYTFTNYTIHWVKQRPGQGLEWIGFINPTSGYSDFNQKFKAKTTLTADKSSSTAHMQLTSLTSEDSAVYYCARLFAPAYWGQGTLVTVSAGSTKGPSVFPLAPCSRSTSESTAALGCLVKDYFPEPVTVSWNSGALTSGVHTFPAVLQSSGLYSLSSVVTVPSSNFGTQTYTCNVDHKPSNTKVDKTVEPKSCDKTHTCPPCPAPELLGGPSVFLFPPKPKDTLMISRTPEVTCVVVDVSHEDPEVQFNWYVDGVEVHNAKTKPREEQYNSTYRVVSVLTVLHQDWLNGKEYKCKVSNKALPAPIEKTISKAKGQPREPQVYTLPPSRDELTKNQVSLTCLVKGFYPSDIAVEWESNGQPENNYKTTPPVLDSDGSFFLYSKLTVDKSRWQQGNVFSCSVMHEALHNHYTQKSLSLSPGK
light: QIVLTQSPAIMSASLGERVTMYCTASSSVSSSYLHWYQQKPGSSPKLWIYGTSNLASGVPARFSGSGSGTSYSLTISSMEAEDAATYYCHQYHRPPLTFGAGTKLELKRTSTVAAPSVFIFPPSDEQLKSGTASVVCLLNNFYPREAKVQWKVDNALQSGNSQESVTEQDSKDSTYSLSSTLTLSKADYEKHKVYACEVTHQGLSSPVTKSFNRGEC
notes: VH/VL of PcMab-47 with human IgG1 CH1-hinge-CH2-CH3 and human kappa CL, expressed in CHO cells; The entries may include the signal peptide; also called chPcMa47
Turning to B2, the binding result in experiment [2] is “binds”.
